B1: Telomere length regulation protein TEL2 homolog (Homo sapiens), Q9Y4R8 (parent)
chain: MEPAPSEVRLAVREAIHALSSSEDGGHIFCTLESLKRYLGEMEPPALPREKEEFASAHFSPVLRCLASRLSPAWLELLPHGRLEELWASFFLEGPADQAFLVLMETIEGAAGPSFRLMKMARLLARFLREGRLAVLMEAQCRQQTQPGFILLRETLLGKVVALPDHLGNRLQQENLAEFFPQNYFRLLGEEVVRVLQAVVDSLQGGLDSSVSFVSQVLGKACVHGRQQEILGVLVPRLAALTQGSYLHQRVCWRLVEQVPDRAMEAVLTGLVEAALGPEVLSRLLGNLVVKNKKAQFVMTQKLLFLQSRLTTPMLQSLLGHLAMDSQRRPLLLQVLKELLETWGSSSAIRHTPLPQQRHVSKAVLICLAQLGEPELRDSRDELLASMMAGVKCRLDSSLPPVRRLGMIVAEVVSARIHPEGPPLKFQYEEDELSLELLALASPQPAGDGASEAGTSLVPATAEPPAETPAEIVDGGVPQAQLAGSDSDLDSDDEFVPYDMSGDRELKSSKAPAYVRDCVEALTTSEDIERWEAALRALEGLVYRSPTATREVSVELAKVLLHLEEKTCVVGFAGLRQRALVAVTVTDPAPVADYLTSQFYALNYSLRQRMDILDVLTLAAQELSRPGCLGRTPQPGSPSPNTPCLPEAAVSQPGSAVASDWRVVVEERIRSKTQRLSKGGPRQGPAGSPSRFNSVAGHFFFPLLQRFDRPLVTFDLLGEDQLVLGRLAHTLGALMCLAVNTTVAVAMGKALLEFVWALRFHIDAYVRQGLLSAVSSVLLSLPAARLLEDLMDELLEARSWLADVAEKDPDEDCRTLALRALLLLQRLKNRLLPPASP

Variants of: B1
Conditions: with pihd1_human PIH1D1, Q9NWS0
Sequence of pihd1_human PIH1D1, Q9NWS0 (Q9NWS0 whole entry): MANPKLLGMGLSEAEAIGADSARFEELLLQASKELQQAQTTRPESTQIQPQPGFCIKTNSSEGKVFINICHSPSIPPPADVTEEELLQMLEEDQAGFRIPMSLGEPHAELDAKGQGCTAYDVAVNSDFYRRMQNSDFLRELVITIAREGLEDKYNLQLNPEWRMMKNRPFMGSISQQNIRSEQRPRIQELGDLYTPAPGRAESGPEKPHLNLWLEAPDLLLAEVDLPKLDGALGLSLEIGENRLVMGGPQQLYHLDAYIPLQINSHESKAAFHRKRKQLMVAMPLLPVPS

effect of a mutation on the interaction | Variant
disrupting interaction strength | D492A
disrupting interaction strength | D493A
disrupting interaction strength | D490A

Variants of: B1
Conditions: with pihd1_human PIH1D1, Q9NWS0
Remark: another data set of the same source

effect of a mutation on the interaction | Variant
disrupting interaction strength | D492A;D493A
